Test results reported in US20230119066A1 (Bristol-Myers Squibb, published 2023).
Values belong to the binder of their own block, whether it stands above or below them.

Legend:
[1] = molecular target: T1, human C-C Motif Chemokine Receptor 8 (hCCR8) (human, UniProt P51685 1-355); assay: cell-based or functional assay
[2] = molecular target: T2, CCR8 N-terminal peptide (SPR of Example 10) (human, sulfation not stated in Example 10; the panning peptide was biotinylated); assay: SPR; 14S15h Fab fragment, humanized, affinity-matured
T2 construct: also called biotinylated CCR8 N-terminal peptide from Anaspec

[3] = molecular target: T1, human C-C Motif Chemokine Receptor 8 …; assay: cell-based or functional assay; remark: listed apart in the source
[4] = molecular target: T1, human C-C Motif Chemokine Receptor 8 …; assay: cell-based or functional assay; remark: listed apart in the source
[5] = molecular target: T1, human C-C Motif Chemokine Receptor 8 …; assay: flow cytometry, binding to activated human Tregs, median EC50
Protocol: Activated Tregs prepared from previously isolated and expanded Tregs were stimulated for 2 days with anti-CD3/CD28 activation beads (ThermoFisher) in the presence of 100 units/ml of recombinant human IL-2. The Abs were serially diluted from a starting concentration of 30 μg/ml. An appropriate PE-conjugated secondary Ab (Jackson ImmunoResearch) against the primary anti-CCR8 Ab was applied, incubated for 15 min at 4° C., and then washed off. EC₅₀ values for the binding of selected anti-CCR8 mAbs to activated Tregs, was calculated using GraphPad Prism (GraphPad Software, La Jolla, Calif.).
A select subset of Abs having EC₅₀ values ranging from picomolar to nanomolar is presented in FIG. 11B, and the respective EC₅₀ values are provided in Table 4.

[6] = molecular target: T2, CCR8 N-terminal peptide (SPR of Example …); assay: SPR; starting mouse Ab 9G10, before humanization

B1: mAb 12F27 (antibody, V domains shown)
VH: QVQLVESGGGVVQPGRSLRLSCAASGFSFRSYGIHWVRQAPGKGLEWVAVISYEGSNKRYADSVKGRFTISRDNSKSTLSLQMNSLRAEDTAVYYCAKGRRPSGEGAFDIWGQGTMVTVSS
VL: DIQMTQSPSSLSASVGDRVTITCRASQGISSWLAWYQQKPEKAPKSLIYAASSLQSGVPSRFSGSGSGTDFTLTISSLQPEDFATYYCQQYNSFPPTFGQGTKVEIKR
- Median EC50 (pM), ADCC killing of activated Tregs by allogeneic NK cells [1]: 304000 pM

B2: 14S15h Fab fragment (Fab, V domains shown)
VH: EVQLVESGGGLVKPGGSLRLSCAASGFRFGPYAMNWVRQAPGKGLEWVGRIRSKSNNYETYYADSVKDRFTISRDDSKNTLYLQMNSLKTEDTAVYYCVGYSDLYVLDYWGQGTLVTVSS
VL: DIVMTQTPPSLPVNPGEPASISCRSSKSLLHSQGNTFLYWYLQKPGQSPQLLIYRMSNLASGVPDRFSGSGSGSDFTLKISWVEAEDVGVYYCMQHLEYPFTFGPGTKVDIK
notes: Tested as a Fab fragment whose constant parts are not delimited
- Kd [2]: 0.64 nM

B4: 9G10, starting mouse anti-CCR8 mAb of 14S15 and 14S15h (antibody, V domains shown)
VH: EVQLVEFGGGLVQPKGSLKLSCVVSGFRFNPYAMNWVRQAPGKGLEWLGRIRSKSNNYETYYADSVKDRFIISRDDSQKMVYLQMNNVKTEDTAMYYCVGYSDLYVLDYWGQGTSVTVSS
VL: DIVMTQAAPSVPVTPGESVSISCRSSKSLLHSNGNTFLYWFLQRPGQSPQLLIYRMSNLASGVPHRFSGSGSGTAFTLRISRVEAEDVGVYYCMQHLEYPFTFGSGTKLEIK
notes: also called starting mouse Ab; starting mouse mAb
- Kd [6]: 1.4 nM

Second part, led by results:

- IC50 (nM), blockade of calcium flux on CCR8-expressing cells [3]: 1.33 nM
- EC50 (pM), cross-linking of CD16 expression reporter cells [4]: 8.02 pM
- EC50 [5]: 0.252 nM
B3: mAb 14S15, nonfucosylated chimeric mouse-human anti-hCCR8 (antibody, human IgG1, kappa, V domains shown)
VH: B4 VH
VL: DIVMTQAAPSVPVTPGESVSISCRSSKSLLHSNGNTFLYWFLQRPGQSPQLLIYRMSNLASGVPHRFSGSGSGTAFTLRISRVEAEDVGVYYCMQHLEYPFTFGSGTKLEIKR
notes: Chimeric version with nf human IgG1 Fc; also called 14S15-IgG1-nf; CCR8.2
- Median EC50 (pM), ADCC killing of activated Tregs by allogeneic NK cells [1]: 39.7 pM

- IC50 (nM), blockade of calcium flux on CCR8-expressing cells [3]: 0.465 nM
- EC50 (pM), cross-linking of CD16 expression reporter cells [4]: 0.69 pM
- EC50 [5]: 1.65 nM
B5: mAb 4A19, nonfucosylated humanized IgG1 anti-hCCR8 (antibody, V domains shown)
VH: QVQLVQSGAEVKKPGASVKVSCKASGYTFTDSEMHWVRQATGQGLEWMGAIQPETGGTAYNQKFKARVTMTRDTSISTAYMELSSLRSEDTAVYYCARRRRNFDYWGQGTLVTVSS
VL: DIVMTQTPLSLSVTPGQPASISCRSSQSLFHSSGNTYLHWYLQKPGQPPQLLIYKVSNRFSGVPDRFSGSGSGTDFTLKISRVEAEDVGVYYCSQSTHVPFTFGQGTKLEIKR
notes: hIgG1-nf, expressed in Expi293 Fut8-/- cells; also called CCR8-nf; A419
- Median EC50 (pM), ADCC killing of activated Tregs by allogeneic NK cells [1]: 13.1 pM
